One test concerns the target T1, 4H1392-AA.
T1 chain: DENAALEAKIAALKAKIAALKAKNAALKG
Briefly: two-hybrid library CCmax.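 Further: natural log of median RNA to DNA barcode read ratio; higher means stronger binding.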 The following applies: mean of both orientations.

The next test has as its target T2, 4H43-AA.
T2 chain: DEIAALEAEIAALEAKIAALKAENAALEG
Briefly: two-hybrid library CCmax.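 Further: natural log of median RNA to DNA barcode read ratio; higher means stronger binding.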 Particulars: mean of both orientations.

Another test concerns the target T3, 4H451-AA.
T3 chain: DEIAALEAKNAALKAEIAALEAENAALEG
As to the kind of experiment: two-hybrid library CCmax.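 Further: natural log of median RNA to DNA barcode read ratio; higher means stronger binding.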 Particulars: mean of both orientations.

Another test concerns the target T4, 4H1350-AA.
T4 chain: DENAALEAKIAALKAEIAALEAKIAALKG
As to the kind of experiment: two-hybrid library CCmax.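 Further: natural log of median RNA to DNA barcode read ratio; higher means stronger binding.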 Particulars: mean of both orientations.

The next test concerns the target T5, 4H510-AA.
T5 chain: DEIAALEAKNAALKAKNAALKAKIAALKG
As to the kind of experiment: two-hybrid library CCmax. The following applies: mean of both orientations.

The next test deals with T6, 4H_BCR.
T6 chain: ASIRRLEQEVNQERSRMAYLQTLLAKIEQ
As to the kind of experiment: two-hybrid library CCmax. The following applies: mean of both orientations.

A further test concerns the target T7, 4H_APH.
T7 chain: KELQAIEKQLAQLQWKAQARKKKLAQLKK
Briefly: two-hybrid library CCmax. The following applies: mean of both orientations.

For a further test, the target named is T8, 4H3590-AA.
T8 chain: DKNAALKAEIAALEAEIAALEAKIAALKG
Briefly: two-hybrid library CCmax. The following applies: mean of both orientations.

In a further test the target is T9, 4H1193-AA.
T9 chain: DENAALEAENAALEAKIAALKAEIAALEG
As to the kind of experiment: two-hybrid library CCmax.

The target in a further test is T10, O13-AA.
T10 chain: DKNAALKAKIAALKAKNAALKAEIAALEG
Briefly: two-hybrid library CCmax. The following applies: mean of both orientations.

For the next test, the target named is GCN2_T. Briefly: two-hybrid library CCmax. Particulars: mean of both orientations.
In the next test the target is T11, 4H2705-AA.
T11 chain: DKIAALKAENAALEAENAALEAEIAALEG
As to the kind of experiment: two-hybrid library CCmax. The following applies: mean of both orientations.

A further test concerns the target T12, 4H3587-AA.
T12 chain: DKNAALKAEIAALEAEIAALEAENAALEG
As to the kind of experiment: two-hybrid library CCmax. Particulars: mean of both orientations.

The target of a further test is T13, 4H134-AA.
T13 chain: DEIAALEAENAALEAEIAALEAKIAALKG
As to the kind of experiment: two-hybrid library CCmax. Particulars: mean of both orientations.

Another test addresses T14, 4H337-AA.
T14 chain: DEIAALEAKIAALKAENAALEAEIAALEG
As to the kind of experiment: two-hybrid library CCmax. The following applies: mean of both orientations.

The target of the next test is 4H_GCN4. Briefly: two-hybrid library CCmax.
In the next test the target is T15, 4H2888-AA.
T15 chain: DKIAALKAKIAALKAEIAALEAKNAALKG
Briefly: two-hybrid library CCmax. The following applies: mean of both orientations.

The target in a further test is T16, 4H1385-AA.
T16 chain: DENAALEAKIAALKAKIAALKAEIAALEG
Briefly: two-hybrid library CCmax. The following applies: mean of both orientations.

The next test deals with T17, 4H3905-AA.
T17 chain: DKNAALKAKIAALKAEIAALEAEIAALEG
As to the kind of experiment: two-hybrid library CCmax. The following applies: mean of both orientations.

A further test deals with T18, O11-AA.
T18 chain: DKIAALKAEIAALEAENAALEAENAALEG
As to the kind of experiment: two-hybrid library CCmax. The following applies: mean of both orientations.

A further test has as its target T19, 4H4038-AA.
T19 chain: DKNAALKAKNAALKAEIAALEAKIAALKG
As to the kind of experiment: two-hybrid library CCmax. Particulars: mean of both orientations.

Another test concerns the target T20, 4H2622-AA.
T20 chain: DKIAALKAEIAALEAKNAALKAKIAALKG
As to the kind of experiment: two-hybrid library CCmax. The following applies: mean of both orientations.

In the next test the target is T21, 4H3049-AA.
T21 chain: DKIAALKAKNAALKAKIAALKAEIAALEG
As to the kind of experiment: two-hybrid library CCmax. The following applies: mean of both orientations.

Another test concerns the target T22, O14-AA.
T22 chain: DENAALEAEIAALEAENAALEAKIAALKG
As to the kind of experiment: two-hybrid library CCmax. The following applies: mean of both orientations.

For another test, the target named is T23, 4H384-AA.
T23 chain: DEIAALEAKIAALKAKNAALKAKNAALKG
As to the kind of experiment: two-hybrid library CCmax. Particulars: mean of both orientations.

For another test, the target named is T24, 4H3625-AA.
T24 chain: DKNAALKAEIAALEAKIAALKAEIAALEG
As to the kind of experiment: two-hybrid library CCmax. Particulars: mean of both orientations.

The next test deals with T25, 4H2736-AA.
T25 chain: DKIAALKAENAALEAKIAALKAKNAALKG
As to the kind of experiment: two-hybrid library CCmax. The following applies: mean of both orientations.

Another test concerns the target T26, 4H1985-bH.
T26 chain: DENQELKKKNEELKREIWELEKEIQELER
As to the kind of experiment: two-hybrid library CCNG1.

A further test deals with T27, 4H3613-bH.
T27 chain: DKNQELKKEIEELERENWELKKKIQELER
Briefly: two-hybrid library CCNG1.

The target of the next test is T28, 4H1373-bH.
T28 chain: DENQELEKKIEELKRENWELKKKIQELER
Briefly: two-hybrid library CCNG1.

Another test deals with T29, 4H1338-bH.
T29 chain: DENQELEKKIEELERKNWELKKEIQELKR
Briefly: two-hybrid library CCNG1.

In a further test the target is T30, 4H1544-bH.
T30 chain: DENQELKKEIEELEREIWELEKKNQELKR
As to the kind of experiment: two-hybrid library CCNG1.

The target in another test is T31, 4H1348-bH.
T31 chain: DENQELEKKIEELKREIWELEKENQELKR
Briefly: two-hybrid library CCNG1.

The target of the next test is T32, 4H3858-bH.
T32 chain: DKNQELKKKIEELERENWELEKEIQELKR
As to the kind of experiment: two-hybrid library CCNG1.

The target in another test is T33, 4H850-bH.
T33 chain: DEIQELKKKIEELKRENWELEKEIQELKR
As to the kind of experiment: two-hybrid library CCNG1.

The next test deals with T34, 4H3628-bH.
T34 chain: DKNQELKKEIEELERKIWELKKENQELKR
Briefly: two-hybrid library CCNG1.

Another test addresses T35, 4H1710-bH.
T35 chain: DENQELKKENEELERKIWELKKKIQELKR
As to the kind of experiment: two-hybrid library CCNG1.

The target of a further test is T36, 4H3817-bH.
T36 chain: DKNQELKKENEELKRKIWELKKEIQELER
Briefly: two-hybrid library CCNG1.

Another test concerns the target T37, 4H1449-bH.
T37 chain: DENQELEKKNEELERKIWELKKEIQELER
As to the kind of experiment: two-hybrid library CCNG1.

Another test has as its target T38, 4H570-bH.
T38 chain: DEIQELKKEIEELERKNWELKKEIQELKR
As to the kind of experiment: two-hybrid library CCNG1.

The target in a further test is T39, 4H1899-bH.
T39 chain: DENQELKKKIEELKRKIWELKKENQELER
As to the kind of experiment: two-hybrid library CCNG1.

For the next test, the target named is T40, 4H3974-bH.
T40 chain: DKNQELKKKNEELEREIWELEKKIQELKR
As to the kind of experiment: two-hybrid library CCNG1.

The next test has as its target T41, 4H930-AA.
T41 chain: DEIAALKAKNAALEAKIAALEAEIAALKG
As to the kind of experiment: two-hybrid library CCmax. Particulars: mean of both orientations.

In the next test the target is T42, P5-AA-1HAA-R.
T42 chain: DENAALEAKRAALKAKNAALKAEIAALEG
Briefly: two-hybrid library CCmax.

The next test deals with T43, 4H3865-AA.
T43 chain: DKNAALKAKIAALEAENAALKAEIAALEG
As to the kind of experiment: two-hybrid library CCmax.

The target of the next test is T44, 4H629-AA.
T44 chain: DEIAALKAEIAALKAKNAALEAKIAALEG
As to the kind of experiment: two-hybrid library CCmax. Particulars: mean of both orientations.

For another test, the target named is T45, 4H697-AA.
T45 chain: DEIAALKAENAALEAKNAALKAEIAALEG
As to the kind of experiment: two-hybrid library CCmax.

For the next test, the target named is T46, 4H458-AA.
T46 chain: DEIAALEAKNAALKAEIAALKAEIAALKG
As to the kind of experiment: two-hybrid library CCmax. Particulars: mean of both orientations.

Another test deals with T47, 4H94-AA.
T47 chain: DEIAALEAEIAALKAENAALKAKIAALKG
Briefly: two-hybrid library CCmax. The following applies: mean of both orientations.

In a further test the target is T48, 4H909-AA.
T48 chain: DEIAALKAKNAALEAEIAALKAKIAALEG
As to the kind of experiment: two-hybrid library CCmax. Particulars: mean of both orientations.

Another test concerns the target T49, 4H745-AA.
T49 chain: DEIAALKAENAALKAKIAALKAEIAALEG
As to the kind of experiment: two-hybrid library CCmax. The following applies: mean of both orientations.

The next test has as its target T50, 4H982-AA.
T50 chain: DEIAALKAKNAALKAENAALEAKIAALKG
As to the kind of experiment: two-hybrid library CCmax. The following applies: mean of both orientations.

The target in another test is T51, 4H797-AA.
T51 chain: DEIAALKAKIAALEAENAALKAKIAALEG
Briefly: two-hybrid library CCmax. Particulars: mean of both orientations.

A further test addresses T52, 4H485-AA.
T52 chain: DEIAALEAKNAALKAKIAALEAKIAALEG
As to the kind of experiment: two-hybrid library CCmax. Particulars: mean of both orientations.

For another test, the target named is T53, 4H850-AA.
T53 chain: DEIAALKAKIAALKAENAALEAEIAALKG
Briefly: two-hybrid library CCmax. The following applies: mean of both orientations.

The target in the next test is T54, 4H891-AA.
T54 chain: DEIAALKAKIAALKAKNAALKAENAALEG
As to the kind of experiment: two-hybrid library CCmax. The following applies: mean of both orientations.

For a further test, the target named is T55, 4H570-AA.
T55 chain: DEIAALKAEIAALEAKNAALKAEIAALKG
Briefly: two-hybrid library CCmax. The following applies: mean of both orientations.

In another test the target is T56, 4H710-AA.
T56 chain: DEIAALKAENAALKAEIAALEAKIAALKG
Briefly: two-hybrid library CCmax. Particulars: mean of both orientations.

The target in another test is T57, 4H536-AA.
T57 chain: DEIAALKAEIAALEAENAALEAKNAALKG
Briefly: two-hybrid library CCmax. Particulars: mean of both orientations.

Chain of 4H_GCN4 (chain, as listed by the source): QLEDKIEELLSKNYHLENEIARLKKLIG

B1: 4H1193-AA (peptide)
chain: DENAALEAENAALEAKIAALKAEIAALEG
Take B1: the interaction score with 4H1392-AA was -0.855; in the test with 4H43-AA it was -0.557; with 4H451-AA, -1.06; in the test with 4H1350-AA, 1.11; with 4H510-AA, -0.152; in the test with 4H_BCR, -1.78. Besides, the interaction score was -1.85 in the test with 4H_APH; 1.11 with 4H3590-AA; -1.08 with 4H1193-AA; -0.387 with O13-AA; -1.62 with GCN2_T; -1.54 with 4H2705-AA. Also, the interaction score is 0.0373 in the test with 4H3587-AA; 1.42 with 4H134-AA; -1.69 with 4H337-AA; -1.64 with 4H_GCN4; 0.331 with 4H2888-AA; -0.776 with 4H1385-AA. Further, the interaction score with 4H3905-AA was -0.00198; with O11-AA, -1.11; in the test with 4H4038-AA, 2.18; in the test with 4H2622-AA it was 1.87; with 4H3049-AA it was 1.47; with O14-AA it was -1.3. Besides, the results for the interaction score with 4H384-AA, with 4H3625-AA and with 4H2736-AA were -1.19, 0.75 and -0.353, respectively.

B2: 4H1338-bH (peptide)
chain: DENQELEKKIEELERKNWELKKEIQELKR
Regarding B2, the interaction score with 4H1985-bH was 0.0593; with 4H3613-bH, -0.0861; in the test with 4H1373-bH it was 0.156; in the test with 4H1338-bH, 0.937; in the test with 4H1544-bH, 0.712; in the test with 4H1348-bH, 1.22. For the same molecule, the interaction score with 4H3858-bH is 1.35; with 4H850-bH it was 1.44; in the test with 4H3628-bH, 0.15; with 4H1710-bH, -0.178; with 4H3817-bH, -0.423; with 4H1449-bH, -0.182. Besides, the interaction score with 4H570-bH was -0.436; with 4H1899-bH, -0.277; with 4H3974-bH it was 0.694.

B3: 4H3865-AA (peptide)
chain: DKNAALKAKIAALEAENAALKAEIAALEG
For B3, the interaction score is -1.43 with 4H930-AA; -0.395 with P5-AA-1HAA-R; 0.444 with 4H3865-AA; -1.62 with 4H629-AA; -1.81 with 4H697-AA; -1.15 in the test with 4H458-AA. Further, the interaction score was 1.56 with 4H94-AA; -1.04 with 4H909-AA; -0.83 with 4H745-AA; -0.79 with 4H982-AA; 1.12 in the test with 4H797-AA; -1.27 with 4H485-AA. Besides, the interaction score was 1.18 with 4H850-AA; -1.81 with 4H891-AA; 0.484 with 4H570-AA; -1.84 in the test with 4H710-AA; -0.909 in the test with 4H536-AA.
